According to US20040009165A1:

Molecular target: macrophage mannose receptor on murine macrophage cell line J774E (murine) (UniProt Q61830)
Test: cell-based or functional assay

| Vmax for uptake in J774E cells | Substance |
| --- | --- |
| 0.871 | pGC54: GCB-GGGG linker-Saposin C fusion protein (enzyme) |
| 0.518 | Cerezyme (recombinantly produced glucocerebrosidase) (from UniProt P04062 40-536) (enzyme) |
